In the assay the target is T1, FZD8 cysteine-rich domain (CRD), MYC-tagged and GPI-anchored on CHO cells (human).
T1 sequence (chain, GPI anchor): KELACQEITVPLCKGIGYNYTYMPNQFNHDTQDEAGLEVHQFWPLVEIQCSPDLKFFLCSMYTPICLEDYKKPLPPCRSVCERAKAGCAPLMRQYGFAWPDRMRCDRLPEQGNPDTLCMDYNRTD
In words: flow cytometry, CHO-CRD cells. (In general: Flow cytometry measures light scatter and fluorescence of single cells or particles in a stream.)

The text below walks through data of patent US20210253718A1, “FRIZZLED5 PROTEIN-BINDING AGENTS” (Modmab Therapeutics Corporation, priority 2016, published 2021).

B1: Fab-2925 (Fab, V domains shown)
VH: EVQLVESGGGLVQPGGSLRLSCAASGFNLSYSSMHWVRQAPGKGLEWVASIYPSYGSTYYADSVKGRFTISADTSKNTAYLQMNSLRAEDTAVYYCARYGYFGLDYWGQGTLVTVSS
VL: DIQMTQSPSSLSASVGDRVTITCRASQSVSSAVAWYQQKPGKAPKLLIYSASSLYSGVPSRFSGSRSGTDFTLTISSLQPEDFATYYCQQAWVYASLFTFGQGTKVEIK
As to B1, the median fluorescence is 7.7.

B2: Fab-2905 (Fab, V domains shown)
VH: EVQLVESGGGLVQPGGSLRLSCAASGFNLSYYYMHWVRQAPGKGLEWVASIYSSYSYTSYADSVKGRFTISADTSKNTAYLQMNSLRAEDTAVYYCARSGYALDYWGQGTLVTVSS
VL: DIQMTQSPSSLSASVGDRVTITCRASQSVSSAVAWYQQKPGKAPKLLIYSASSLYSGVPSRFSGSRSGTDFTLTISSLQPEDFATYYCQQSSWYYGYPFTFGQGTKVEIK
B2 displayed a median fluorescence of 8.17.
